Measurements reported in patent US6906179 (GENERAL HOSPITAL, dated 2005).

B1: HEF1 M2/N (aa 651-759) (other, human, UniProt Q14511 651-759, looked up)
chain: ENIMKQNKMQLEHHQLSQFQLLEQEITKPVENDISKWKPSQSLPTTNSGVSAQDRQLLCFYYDQCETHFISLLNAIDALFSCVSSAQPPRIFVAHSKFVILSAHKLVFI
notes: range 651-759
B2: Smad1 (other, UniProt Q15797 1-465, looked up)
chain: MNVTSLFSFTSPAVKRLLGWKQGDEEEKWAEKAVDALVKKLKKKKGAMEELEKALSCPGQPSNCVTIPRSLDGRLQVSHRKGLPHVIYCRVWRWPDLQSHHELKPLECCEFPFGSKQKEVCINPYHYKRVESPVLPPVLVPRHSEYNPQHSLLAQFRNLGQNEPHMPLNATFPDSFQQPNSHPFPHSPNSSYPNSPGSSSSTYPHSPTSSDPGSPFQMPADTPPPAYLPPEDPMTQDGSQPMDTNMMAPPLPSEINRGDVQAVAYEEPKHWCSIVYYELNNRVGEAFHASSTSVLVDGFTDPSNNKNRFCLGLLSNVNRNSTIENTRRHIGKGVHLYYVGGEVYAECLSDSSIFVQSRNCNYHHGFHPTTVCKIPSGCSLKIFNNQEFAQLLAQSVNHGFETVYELTKMCTIRMSFVKGWGAEYHRQDVTSTPCWIEIHLHGPLQWLDKVLTQMGSPHNPISSVS
notes: also called Smad1 itself
B3: LexA-Smad1 (full length Smad1 fused in frame to the LexA DNA binding domain (1-202) in pEG202) (other)
chain: MKALTARQQEVFDLIRDHISQTGMPPTRAEIAQRLGFRSPNAAEEHLKALARKGVIEIVSGASRGIRLLQEEEEGLPLVGRVAAGEPLLAQQHIEGHYQVDPSLFKPNADFLLRVSGMSMKDIGIMDGDLLAVHKTQDVRNGQVVVARIDDEVTVKRLKKQGNKVELLPENSEFKPIVVDLRQQSFTIEGLAVGVIRNGDWLMNVTSLFSFTSPAVKRLLGWKQGDEEEKWAEKAVDALVKKLKKKKGAMEELEKALSCPGQPSNCVTIPRSLDGRLQVSHRKGLPHVIYCRVWRWPDLQSHHELKPLECCEFPFGSKQKEVCINPYHYKRVESPVLPPVLVPRHSEYNPQHSLLAQFRNLGQNEPHMPLNATFPDSFQQPNSHPFPHSPNSSYPNSPGSSSSTYPHSPTSSDPGSPFQMPADTPPPAYLPPEDPMTQDGSQPMDTNMMAPPLPSEINRGDVQAVAYEEPKHWCSIVYYELNNRVGEAFHASSTSVLVDGFTDPSNNKNRFCLGLLSNVNRNSTIENTRRHIGKGVHLYYVGGEVYAECLSDSSIFVQSRNCNYHHGFHPTTVCKIPSGCSLKIFNNQEFAQLLAQSVNHGFETVYELTKMCTIRMSFVKGWGAEYHRQDVTSTPCWIEIHLHGPLQWLDKVLTQMGSPHNPISSVS
notes: also called Smad1pEG202; full length Smad1 bait
B4: HEF1 M2/C (aa 695-832) (other, human, UniProt Q14511 695-832, looked up)
chain: TTNSGVSAQDRQLLCFYYDQCETHFISLLNAIDALFSCVSSAQPPRIFVAHSKFVILSAHKLVFIGDTLTRQVTAQDIRNKVMNSSNQLCEQLKTIVMATKMAALHYPSTTALQEMVHQVTDLSRNAQLFKRSLLEMA
notes: range 695-832
B5: Smad4 (other, UniProt Q13485 1-552, looked up)
chain: MDNMSITNTPTSNDACLSIVHSLMCHRQGGESETFAKRAIESLVKKLKEKKDELDSLITAITTNGAHPSKCVTIQRTLDGRLQVAGRKGFPHVIYARLWRWPDLHKNELKHVKYCQYAFDLKCDSVCVNPYHYERVVSPGIDLSGLTLQSNAPSSMMVKDEYVHDFEGQPSLSTEGHSIQTIQHPPSNRASTETYSTPALLAPSESNATSTANFPNIPVASTSQPASILGGSHSEGLLQIASGPQPGQQQNGFTGQPATYHHNSTTTWTGSRTAPYTPNLPHHQNGHLQHHPPMPPHPGHYWPVHNELAFQPPISNHPAPEYWCSIAYFEMDVQVGETFKVPSSCPIVTVDGYVDPSGGDRFCLGQLSNVHRTEAIERARLHIGKGVQLECKGEGDVWVRCLSDHAVFVQSYYLDREAGRAPGDAVHKIYPSAYIKVFDLRQCHRQMQQQAATAQAAAAAQAAAVAGNIPGPGSVGGIAPAISLSAAAGIGVDDLRRLCILRMSFVKGWGPDYPRQSIKETPCWIEIHLHRALQLLDEVLHTMPIADPQPLD
notes: also called DPC4
B6: HEF1 M2/M (aa 695-759) (other, human, UniProt Q14511 695-759, looked up)
chain: TTNSGVSAQDRQLLCFYYDQCETHFISLLNAIDALFSCVSSAQPPRIFVAHSKFVILSAHKLVFI
notes: range 695-759
B7: Clone S1+28 (other)
chain: FAVDAKALPQNKPRPLTQEEIAQRRERARQRHAEKLAAAQGQAPLEPTQDGSAIETCPKGDEPRGDEQQVESMTPKPVLQEENNQESFIAFARVFSGVARRGKKIFVLGPKYSPLEFLRRVPLCFSAPPDGLPQVPHMAYCALENLYLLMGRELEYLEEVPPGNVLGIGGLQDFVLKSATLCSLPSCPPFIPLNFEATPIVRVAVEPKHPSEMPQLVKGMKLLNQADPCVQILIQETGEHVLVTAGEVHLQRCLDDLKERFAKIHISVSEPIIPFRETITKPPKVDMVNEEIGKQQKVAVIHQMKEDQSKIPEGIQVDSDGLITITTPNKLATLSVRAMPLPEEVTQILEENSDLIRSMEQLTSSLNEGENTHMIHQKTQEKIWEFKGKLEQHLTGRRWRNIVDQIWSFGPRKCGPNILVNKSEDFQNSVWTGPADKASKEASRYRDLGNSIVSGFQLATLSGPMCEEPLMGVCFVLEKWDLSKFEEQGASDLAKEDRRKMKPVLVEMKTKSYKMAALRPLRRGHHRKENLHSLTAMDLSQDS
notes: Novel clone from the human fetal brain library; also called human homologue of yeast translocation elongation factor
B8: Smad3N (aa 1-144) (other, UniProt P84022 1-144, looked up)
chain: MSSILPFTPPIVKRLLGWKKGEQNGQEEKWCEKAVKSLVKKLKKTGQLDELEKAITTQNVNTKCITIPRSLDGRLQVSHRKGLPHVIYCRLWRWPDLHSHHELRAMELCEFAFNMKKDEVCVNPYHYQRVETPVLPPVLVPRHT
notes: range 1-144; also called N-terminal MH1 domain of Smad3
B9: Clone S1+27 (SIP2) (other)
chain: KSSPLLIRMEESLNIVKYTAFLYNDQLIWSGLEQDDMRILYKYLTTSLFPRHIEPELAGRDSPIRAEMPGNLQHYGRFLTGPLNLNDPDAKCRFPKIFVNTDDTYEELHLIVYKAMSAAVCFMIDASVHPTLDFCRRLDSIVGPQLTVLASDICEQFNINKRMSGSEKEPQFKFIYFNHMNLAEKSTVHMRKTPSVSLTSVHPDLMKILGDINSDFTRVDEDEEIIVKAMSDYWVVGKKSDRRELYVILNQKNANLIEVNEVKKLCATQFNNIFFLD
notes: Novel clone from the human fetal brain library; also called Clone Smad1+ (S1+)27
B10: Clone S1+12 (other)
chain: EFGTRRMMEGLDDGPDFLSEEDRGLKAINVDLQSDAALQVDISDALSERDKVKFTVHTKSSLPNFKQNEFSVVRQHEEFIWLHDSFVENEDYAGYIIPPAPPRPDFDASREKLQKLGEGEGSMTKEEFTKMKQELEAEYLAIFKKTVAMHEVFLCRVAAHPILRRDLNFHVFLEYNQDLSVRGKKKKKNSRSFGLLRQ
notes: also called sorting nexin-like protein

Legend:
[1] = biological target: B8; test: co-immunoprecipitation, transfected cells
[2] = biological target: B3; test: yeast two-hybrid screen, LexA-Smad1 bait
Source text: (§1) From the pooled stock of the transformants, ten million cells are screened on U^-H^-W^-L^- galactose plates containing X-gal. Only those that form blue colonies are picked as candidate positives. […] Methods of sequencing employ such enzymes as the Klenow fragment of DNA polymerase I, Sequenase® (US Biochemical Corp, Cleveland, Ohio), Taq polymerase (Perkin Elmer, Norwalk, Conn.), thermostable T7 polymerase (Amersham, Chicago, Ill.), or combinations of recombinant polymerases and proofreading exonucleases such as the ELONGASE Amplification System (Gibco BRL, Gaithersburg, Md.). Preferably, the process is automated with machines such as the Hamilton Micro Lab 2200 (Hamilton, Reno Nev.), Peltier Thermal Cycler (PTC200; MJ Research, Watertown, Mass.) and the ABI 377 DNA sequencers (Perkin Elmer). […] The transformants are first streaked onto a master plate, then replicated onto two testing plates: U^-H^-W^- glucose plates with X-gal; U^-H^-W^- HW galactose/raffinose plates with X-gal.

[3] = biological target: T1, Uba 80 (ubiquitin fusion protein), clones S1+36 and S1+38 (human, UniProt P62979 1-156); test: yeast two-hybrid screen, LexA-Smad1 bait
Source text: as §1

[4] = biological target: B3; test: yeast two-hybrid (data not shown)
[5] = biological target: T2, p115HEF1 (full length HEF1, 115 kD form) (human, UniProt Q14511 1-834, form derived from differential phosphorylation; sites not given); test: co-immunoprecipitation, transfected 293 cells
T2 construct: Transfected into 293 cells; tag not described
T2 sequence (looked up): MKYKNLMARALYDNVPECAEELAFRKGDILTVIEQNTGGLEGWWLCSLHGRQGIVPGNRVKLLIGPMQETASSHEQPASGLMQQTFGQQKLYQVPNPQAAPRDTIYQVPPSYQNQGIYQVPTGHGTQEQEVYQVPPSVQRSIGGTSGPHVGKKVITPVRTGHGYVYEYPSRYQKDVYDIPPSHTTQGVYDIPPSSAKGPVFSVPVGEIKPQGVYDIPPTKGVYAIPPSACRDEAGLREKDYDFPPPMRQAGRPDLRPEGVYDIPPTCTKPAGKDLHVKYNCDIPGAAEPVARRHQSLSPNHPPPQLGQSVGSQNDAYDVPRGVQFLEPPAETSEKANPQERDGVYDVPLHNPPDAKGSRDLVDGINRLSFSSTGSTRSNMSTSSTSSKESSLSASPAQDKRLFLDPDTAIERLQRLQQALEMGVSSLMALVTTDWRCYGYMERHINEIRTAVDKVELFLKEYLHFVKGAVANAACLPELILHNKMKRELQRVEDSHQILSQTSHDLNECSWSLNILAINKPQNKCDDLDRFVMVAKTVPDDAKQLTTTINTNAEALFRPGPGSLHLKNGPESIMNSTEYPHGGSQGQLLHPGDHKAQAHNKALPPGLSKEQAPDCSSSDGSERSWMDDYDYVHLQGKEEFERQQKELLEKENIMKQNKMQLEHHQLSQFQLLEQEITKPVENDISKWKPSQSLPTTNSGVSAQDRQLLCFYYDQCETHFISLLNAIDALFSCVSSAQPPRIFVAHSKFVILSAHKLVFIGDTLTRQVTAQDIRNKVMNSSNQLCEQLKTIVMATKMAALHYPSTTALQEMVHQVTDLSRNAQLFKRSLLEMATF

[6] = biological target: T3, p105HEF1 (full length HEF1, 105 kD form) (human, UniProt Q14511 1-834, form derived from differential phosphorylation; sites not given); test: co-immunoprecipitation, transfected 293 cells
T3 construct: Transfected into 293 cells; tag not described
T3 sequence (looked up): T2 sequence (looked up)

[7] = biological target: B3; test: yeast two-hybrid; list of Smad1 interactors
Source text: as §1

[8] = biological target: T4, HEF1 M2 (aa 651-834) (human, UniProt Q14511 651-834); test: co-immunoprecipitation, transfected cells
T4 construct: range 651-834
T4 sequence (looked up): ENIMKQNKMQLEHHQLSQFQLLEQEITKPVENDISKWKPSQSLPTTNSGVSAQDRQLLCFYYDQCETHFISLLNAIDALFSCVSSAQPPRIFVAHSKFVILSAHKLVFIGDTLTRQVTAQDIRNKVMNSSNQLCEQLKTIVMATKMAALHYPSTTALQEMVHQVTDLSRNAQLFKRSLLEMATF

[9] = biological target: T5, HsN3 (human, UniProt P28070 1-264, limits assumed); test: list of HsN3 interactors; method not detailed
T5 construct: also called β subunit of 20S proteasome; untagged HsN3 protein

[10] = biological target: T1, Uba 80 (ubiquitin fusion protein), …; test: list of S1+12 interactors; method not detailed
[11] = biological target: the molecule itself; test: list of S1+12 interactors; method not detailed

T5 sequence (P28070 whole entry): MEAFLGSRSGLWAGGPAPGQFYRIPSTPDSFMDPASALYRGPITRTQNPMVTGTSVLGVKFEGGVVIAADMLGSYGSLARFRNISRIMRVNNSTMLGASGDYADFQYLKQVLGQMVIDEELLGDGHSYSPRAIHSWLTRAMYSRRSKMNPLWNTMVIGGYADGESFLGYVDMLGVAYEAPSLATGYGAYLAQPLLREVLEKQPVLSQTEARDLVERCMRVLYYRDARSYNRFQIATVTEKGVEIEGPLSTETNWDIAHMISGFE

Q: Does B1 bind [1]?
A: no binding

Q: Does B2 bind [2]?
A: binds

Q: Does B3 bind [3]?
A: binds

Q: Does B4 bind [1]?
A: no binding

Q: Does B5 bind [4]?
A: binds

Q: Does B5 bind [5]?
A: no binding

Q: Does B5 bind [6]?
A: no binding

Q: Does B6 bind [1]?
A: no binding

Q: Does B7 bind [7]?
A: binds

Q: Does B8 bind [8]?
A: no binding

Q: Does B9 bind [7]?
A: binds

Q: What does the source list for B10?
A: binding result [7]: binds; binding result [9]: binds; binding result [10]: binds; binding result [11]: binds
